B1: H-PS-S(octanoyl)-FLSPEHQRVQQRKESKSPPAKLQPR-NH2 (peptide)
peptide: H-PSS(Octanoyl)FLSPEHQRVQQRKESKSPPAKLQPR-NH2
SMILES: CCCCCCCC(=O)OC[C@H](NC(=O)[C@H](CO)NC(=O)[C@@H]1CCCN1)C(=O)N[C@@H](Cc1ccccc1)C(=O)N[C@@H](CC(C)C)C(=O)N[C@@H](CO)C(=O)N1CCC[C@H]1C(=O)N[C@@H](CCC(=O)O)C(=O)N[C@@H](Cc1c[nH]cn1)C(=O)N[C@@H](CCC(N)=O)C(=O)N[C@@H](CCCNC(=N)N)C(=O)N[C@H](C(=O)N[C@@H](CCC(N)=O)C(=O)N[C@@H](CCC(N)=O)C(=O)N[C@@H](CCCNC(=N)N)C(=O)N[C@@H](CCCCN)C(=O)N[C@@H](CCC(=O)O)C(=O)N[C@@H](CO)C(=O)N[C@@H](CCCCN)C(=O)N[C@@H](CO)C(=O)N1CCC[C@H]1C(=O)N1CCC[C@H]1C(=O)N[C@@H](C)C(=O)N[C@@H](CCCCN)C(=O)N[C@@H](CC(C)C)C(=O)N[C@@H](CCC(N)=O)C(=O)N1CCC[C@H]1C(=O)N[C@@H](CCCNC(=N)N)C(N)=O)C(C)C
B2: H-PS-S(octanoyl)-FLSPYHQRVQQRKESKKPPAKLQPR-NH2 (peptide)
peptide: H-PSS(Octanoyl)FLSPYHQRVQQRKESKKPPAKLQPR-NH2
SMILES: CCCCCCCC(=O)OC[C@H](NC(=O)[C@H](CO)NC(=O)[C@@H]1CCCN1)C(=O)N[C@@H](Cc1ccccc1)C(=O)N[C@@H](CC(C)C)C(=O)N[C@@H](CO)C(=O)N1CCC[C@H]1C(=O)N[C@@H](Cc1ccc(O)cc1)C(=O)N[C@@H](Cc1c[nH]cn1)C(=O)N[C@@H](CCC(N)=O)C(=O)N[C@@H](CCCNC(=N)N)C(=O)N[C@H](C(=O)N[C@@H](CCC(N)=O)C(=O)N[C@@H](CCC(N)=O)C(=O)N[C@@H](CCCNC(=N)N)C(=O)N[C@@H](CCCCN)C(=O)N[C@@H](CCC(=O)O)C(=O)N[C@@H](CO)C(=O)N[C@@H](CCCCN)C(=O)N[C@@H](CCCCN)C(=O)N1CCC[C@H]1C(=O)N1CCC[C@H]1C(=O)N[C@@H](C)C(=O)N[C@@H](CCCCN)C(=O)N[C@@H](CC(C)C)C(=O)N[C@@H](CCC(N)=O)C(=O)N1CCC[C@H]1C(=O)N[C@@H](CCCNC(=N)N)C(N)=O)C(C)C
B3: H-PS-S(octanoyl)-FLSPEHQRVQQRKESKKPPAKLQPS-NH2 (peptide)
peptide: H-PSS(Octanoyl)FLSPEHQRVQQRKESKKPPAKLQPS-NH2
SMILES: CCCCCCCC(=O)OC[C@H](NC(=O)[C@H](CO)NC(=O)[C@@H]1CCCN1)C(=O)N[C@@H](Cc1ccccc1)C(=O)N[C@@H](CC(C)C)C(=O)N[C@@H](CO)C(=O)N1CCC[C@H]1C(=O)N[C@@H](CCC(=O)O)C(=O)N[C@@H](Cc1c[nH]cn1)C(=O)N[C@@H](CCC(N)=O)C(=O)N[C@@H](CCCNC(=N)N)C(=O)N[C@H](C(=O)N[C@@H](CCC(N)=O)C(=O)N[C@@H](CCC(N)=O)C(=O)N[C@@H](CCCNC(=N)N)C(=O)N[C@@H](CCCCN)C(=O)N[C@@H](CCC(=O)O)C(=O)N[C@@H](CO)C(=O)N[C@@H](CCCCN)C(=O)N[C@@H](CCCCN)C(=O)N1CCC[C@H]1C(=O)N1CCC[C@H]1C(=O)N[C@@H](C)C(=O)N[C@@H](CCCCN)C(=O)N[C@@H](CC(C)C)C(=O)N[C@@H](CCC(N)=O)C(=O)N1CCC[C@H]1C(=O)N[C@@H](CO)C(N)=O)C(C)C
B4: H-PS-S(octanoyl)-FLSPEHQRVQQRSESKKPPAKLQPR-NH2 (peptide)
peptide: H-PSS(Octanoyl)FLSPEHQRVQQRSESKKPPAKLQPR-NH2
SMILES: CCCCCCCC(=O)OC[C@H](NC(=O)[C@H](CO)NC(=O)[C@@H]1CCCN1)C(=O)N[C@@H](Cc1ccccc1)C(=O)N[C@@H](CC(C)C)C(=O)N[C@@H](CO)C(=O)N1CCC[C@H]1C(=O)N[C@@H](CCC(=O)O)C(=O)N[C@@H](Cc1c[nH]cn1)C(=O)N[C@@H](CCC(N)=O)C(=O)N[C@@H](CCCNC(=N)N)C(=O)N[C@H](C(=O)N[C@@H](CCC(N)=O)C(=O)N[C@@H](CCC(N)=O)C(=O)N[C@@H](CCCNC(=N)N)C(=O)N[C@@H](CO)C(=O)N[C@@H](CCC(=O)O)C(=O)N[C@@H](CO)C(=O)N[C@@H](CCCCN)C(=O)N[C@@H](CCCCN)C(=O)N1CCC[C@H]1C(=O)N1CCC[C@H]1C(=O)N[C@@H](C)C(=O)N[C@@H](CCCCN)C(=O)N[C@@H](CC(C)C)C(=O)N[C@@H](CCC(N)=O)C(=O)N1CCC[C@H]1C(=O)N[C@@H](CCCNC(=N)N)C(N)=O)C(C)C
B5: H-PS-S(octanoyl)-FLSPEHQRVQQRKESSKPPAKLQPR-NH2 (peptide)
peptide: H-PSS(Octanoyl)FLSPEHQRVQQRKESSKPPAKLQPR-NH2
SMILES: CCCCCCCC(=O)OC[C@H](NC(=O)[C@H](CO)NC(=O)[C@@H]1CCCN1)C(=O)N[C@@H](Cc1ccccc1)C(=O)N[C@@H](CC(C)C)C(=O)N[C@@H](CO)C(=O)N1CCC[C@H]1C(=O)N[C@@H](CCC(=O)O)C(=O)N[C@@H](Cc1c[nH]cn1)C(=O)N[C@@H](CCC(N)=O)C(=O)N[C@@H](CCCNC(=N)N)C(=O)N[C@H](C(=O)N[C@@H](CCC(N)=O)C(=O)N[C@@H](CCC(N)=O)C(=O)N[C@@H](CCCNC(=N)N)C(=O)N[C@@H](CCCCN)C(=O)N[C@@H](CCC(=O)O)C(=O)N[C@@H](CO)C(=O)N[C@@H](CO)C(=O)N[C@@H](CCCCN)C(=O)N1CCC[C@H]1C(=O)N1CCC[C@H]1C(=O)N[C@@H](C)C(=O)N[C@@H](CCCCN)C(=O)N[C@@H](CC(C)C)C(=O)N[C@@H](CCC(N)=O)C(=O)N1CCC[C@H]1C(=O)N[C@@H](CCCNC(=N)N)C(N)=O)C(C)C
B6: H-PS-S(octanoyl)-FLSPEHQRVQQRKESKKPPASLQPR-NH2 (peptide)
peptide: H-PSS(Octanoyl)FLSPEHQRVQQRKESKKPPASLQPR-NH2
SMILES: CCCCCCCC(=O)OC[C@H](NC(=O)[C@H](CO)NC(=O)[C@@H]1CCCN1)C(=O)N[C@@H](Cc1ccccc1)C(=O)N[C@@H](CC(C)C)C(=O)N[C@@H](CO)C(=O)N1CCC[C@H]1C(=O)N[C@@H](CCC(=O)O)C(=O)N[C@@H](Cc1c[nH]cn1)C(=O)N[C@@H](CCC(N)=O)C(=O)N[C@@H](CCCNC(=N)N)C(=O)N[C@H](C(=O)N[C@@H](CCC(N)=O)C(=O)N[C@@H](CCC(N)=O)C(=O)N[C@@H](CCCNC(=N)N)C(=O)N[C@@H](CCCCN)C(=O)N[C@@H](CCC(=O)O)C(=O)N[C@@H](CO)C(=O)N[C@@H](CCCCN)C(=O)N[C@@H](CCCCN)C(=O)N1CCC[C@H]1C(=O)N1CCC[C@H]1C(=O)N[C@@H](C)C(=O)N[C@@H](CO)C(=O)N[C@@H](CC(C)C)C(=O)N[C@@H](CCC(N)=O)C(=O)N1CCC[C@H]1C(=O)N[C@@H](CCCNC(=N)N)C(N)=O)C(C)C

The star is where a group is joined. Octanoyl = CCCCCCCC(=O)*

In this test the target is human growth hormone secretagogue receptor type 1a (human, UniProt Q92847 1-366). Nature of the test: cell-based or functional assay.
Chain of human growth hormone secretagogue receptor type 1a (Q92847 whole entry): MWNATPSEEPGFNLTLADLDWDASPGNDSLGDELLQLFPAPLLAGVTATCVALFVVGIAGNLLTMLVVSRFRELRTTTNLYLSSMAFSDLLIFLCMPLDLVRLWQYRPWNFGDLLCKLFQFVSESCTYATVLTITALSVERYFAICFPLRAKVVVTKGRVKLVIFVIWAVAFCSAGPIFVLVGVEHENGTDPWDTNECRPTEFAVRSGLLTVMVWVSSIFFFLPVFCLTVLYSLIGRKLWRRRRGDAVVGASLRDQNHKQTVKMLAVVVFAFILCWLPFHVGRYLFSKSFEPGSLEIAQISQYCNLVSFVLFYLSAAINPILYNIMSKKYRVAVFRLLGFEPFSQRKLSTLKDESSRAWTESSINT
As for B1, the “EC50 (nM); Ca2+ induction in HEK293 cells stably expressing the human ghrelin receptor” value (“EC50 (nM); Ca2+ induction” for short) is 0.086 nM.

As for B2, the “EC50 (nM); Ca2+ induction” value turned out to be 0.719 nM.

For the molecule B3, the “EC50 (nM); Ca2+ induction” value came out at 0.039 nM.

Consider B4, for which the “EC50 (nM); Ca2+ induction” value was found to be 0.182 nM.

Take B5: the “EC50 (nM); Ca2+ induction” value amounted to 0.095 nM.

Consider B6, for which the “EC50 (nM); Ca2+ induction” value is 0.183 nM.

Values taken from patent US9657062B2, “Ghrelin analogues” (Zealand Pharma A/S, priority 2012, dated 2017).
